From patent publication US6642368B1, “Programmed cell death and caspase-12” (The General Hospital Corporation, priority 1998, dated 2003)

Legend:
caspase-12 = biological target: T1, caspase-12 (Mus musculus, UniProt O08736); assay: Suppression of cell-killing activity of caspase-12 by baculovirus p35; format: cell-based; settings: unpublished data
T1 sequence (O08736 1-419): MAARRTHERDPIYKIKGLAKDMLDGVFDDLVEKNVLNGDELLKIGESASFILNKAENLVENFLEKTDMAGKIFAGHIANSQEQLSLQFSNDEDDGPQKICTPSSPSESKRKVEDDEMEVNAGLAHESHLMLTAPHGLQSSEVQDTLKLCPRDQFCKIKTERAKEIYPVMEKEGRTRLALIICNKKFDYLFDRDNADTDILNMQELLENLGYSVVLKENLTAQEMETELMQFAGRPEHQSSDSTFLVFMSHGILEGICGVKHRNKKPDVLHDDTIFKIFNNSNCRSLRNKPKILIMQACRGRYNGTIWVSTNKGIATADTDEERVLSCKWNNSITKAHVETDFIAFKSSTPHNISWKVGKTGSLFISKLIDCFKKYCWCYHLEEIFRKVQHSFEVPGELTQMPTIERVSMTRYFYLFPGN

COS-1 cells = assay: Cell type specificity of cell killing, lacZ fusion transfection; format: cell-based, monkey; settings: COS-1, FIG. 6
Procedure: (§1) FIG. 6. The cell type specificity of caspase-12-induced cell killing activity. NG108-15, HeLa and COS-1 cells were transfected with casp-12L-lacZ, casp-12S-LacZ, lacZ or ICE-lacZ. Staining of transfectants were done and the data are presented as in FIG. 4C.
(§2) Rat-1, rat embryonic fibroblast cells, NG108-15, HeLa and COS-1 were maintained in culture at 37° C. with 5% CO2 in Dulbecco's modified Eagle's medium containing 10% (v/v) fetal bovine serum (BioWhittaker) and 50 units/ml penicillin and 50 μg/ml streptomycin (Sigma). The day before transfection, cells were seeded at a density of 1.3×10^4 cells/cm^2. Expression constructs were transferred to cells with either calcium phosphate or lipofectamine (GIBCO BRL) as previously described (Miura, M., et al., Cell 75:653-660 (1993); Kumar, S., et al., Genes and Development 8:1613-1626 (1994); Wang, L., et al., Cell 78:739-750 (1994)). The expression of chimeric genes in cells was detected by staining of cells with 5-bromo-4-chloro-3-indolyl β-D-galactoside (X-gal) as previously described (Miura, M., et al., Cell 75:653-660 (1993); Kumar, S., et al., Genes and Development 8:1613-1626 (1994); Wang, L., et al., Cell 78:739-750 (1994)). […]

Rat-1 cells = assay: Cell death induced by transient overexpression of lacZ fusion constructs, X-gal staining; format: cell-based; settings: lacZ fusion construct, 24 hr after transfection
Text: (§3) FIGS. 4A-4C. Cell death induced by overexpression of caspase-12. […] The round cells expressing the casp-12L-lacZ fusion proteins show condensed and fragmented nuclei. […] The data shown are the percentage of round blue cells among total number of blue cells counted. In each transfection, over 200 blue cells were randomly chosen and counted. The data of Rat-1 cells collected from at least three independent experiments. The constructs used were: casp-12L-lacZ, casp-12S-lacZ, casp-12Δ-lacZ, ICE-lacZ, lacZ. Rat embryonic fibroblast cells (REF) were also transfected with either casp-12L-lacZ or lacZ.
To examine if expression of caspase-12 induces apoptosis, a transient expression system was used to overexpress caspase-12 in mammalian cells. […] Transfected cells are easily detected by staining with X-gal because of the β-galactosidase activity of lacZ. Expression constructs of casp-12L and casp-12S fused with lacZ gene in pcDNA3 vector, which contains the cytomegalovirus (CMV) promoter, were generated. These expression constructs were introduced into Rat-1 cells by transfection, and the expression of the genes were examined 24 hr after transfection using X-gal reaction.
Rat-1, rat embryonic fibroblast cells, NG108-15, HeLa and COS-1 were maintained in culture at 37° C. with 5% CO2 in Dulbecco's modified Eagle's medium containing 10% (v/v) fetal bovine serum (BioWhittaker) and 50 units/ml penicillin and 50 μg/ml streptomycin (Sigma). The day before transfection, cells were seeded at a density of 1.3×10^4 cells/cm^2. Expression constructs were transferred to cells with either calcium phosphate or lipofectamine (GIBCO BRL) as previously described (Miura, M., et al., Cell 75:653-660 (1993); Kumar, S., et al., Genes and Development 8:1613-1626 (1994); Wang, L., et al., Cell 78:739-750 (1994)). The expression of chimeric genes in cells was detected by staining of cells with 5-bromo-4-chloro-3-indolyl β-D-galactoside (X-gal) as previously described (Miura, M., et al., Cell 75:653-660 (1993); Kumar, S., et al., Genes and Development 8:1613-1626 (1994); Wang, L., et al., Cell 78:739-750 (1994)). Immunostaining of transfected cells was done as previously described using mouse monoclonal anti-lacZ antibody (Miura, M., et al., Cell 75:653-660 (1993); Kumar, S., et al., Genes and Development 8:1613-1626 (1994); Wang, L., et al., Cell 78:739-750 (1994)).

NG108-15 = assay: Cell type specificity of cell killing, lacZ fusion transfection; format: cell-based; settings: NG108-15, FIG. 6
Procedure: as §1, §2

HeLa = assay: as above; format: cell-based; settings: FIG. 6
Procedure: as §1, §2

[1] = Protease activity of full-length recombinant caspase-12 from E. coli; format: biochemical; settings: expressed and purified from E. coli
Rat-1/bcl-2 = assay: Effect of cell death suppressor bcl-2 on caspase-12 killing activity; format: cell-based; settings: casp-12L-lacZ in Rat-1/bcl-2 stable transfectant
Procedure: FIGS. 5A-5B. Effect of cell death suppressors on the killing activity of caspase-12. […] Cell death was assayed as described in FIG. 4C. […] The data from transfection of the parental cell line, Rat-1 (FIG. 4C), are included in the figures for comparison. The lacZ construct was also used for transfection as a control.
To determine if expression of bcl-2 and crmA can inhibit apoptosis induced by casp-12 overexpression, casp-12L-lacZ fusion construct was transfected into stable cell lines of Rat-1 that overexpresses either bcl-2 or crmA (Miura, M., et al., Cell 75:653-660 (1993)). Cell death was assayed as described above (Example 3). […] The magnitude of the bcl-2 suppression against toxicity of casp-12 overexpression was about 10% (60% for Rat-1, 50% for Rat-1/bcl-2) which is much smaller than that observed for ICE and casp-2 (FIG. 5A; Wang, L., et al., Cell 78:739-750 (1994)).

[2] = tested on: rat embryonic fibroblast cells; assay: Cell death induced by transient overexpression of lacZ fusion constructs, X-gal staining; format: cell-based; settings: primary rat embryonic fibroblasts, FIG. 4C
Text: as §3
as §2, with “Expression constructs were transferred to cells with either calcium phosphate or lipofectamine (GIBCO BRL) as previously described (Miura, M., et al., Cell 75:653-660 (1993); Kumar, S., et al., Genes and Development 8:1613-1626 (1994); Wang, L., et al., Cell 78:739-750 (1994)).” left out

[3] = biological target: T2, caspase-12Δ (Gly95-Asn419 of caspase-12L, with an artificial initiation codon), [35S]-labeled
T2 chain: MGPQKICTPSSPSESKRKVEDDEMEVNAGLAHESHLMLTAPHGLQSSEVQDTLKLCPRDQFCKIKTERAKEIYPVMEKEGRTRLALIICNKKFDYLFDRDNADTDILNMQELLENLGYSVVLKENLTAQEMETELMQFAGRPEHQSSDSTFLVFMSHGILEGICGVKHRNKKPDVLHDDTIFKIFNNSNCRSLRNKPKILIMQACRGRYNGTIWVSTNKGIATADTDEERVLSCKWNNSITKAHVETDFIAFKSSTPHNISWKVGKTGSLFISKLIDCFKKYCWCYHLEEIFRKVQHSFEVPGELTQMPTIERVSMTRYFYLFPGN

[4] = biological target: poly(ADP-ribose) polymerase
[5] = biological target: T3, pro-caspase-2 ([35S]-labeled)
T3 sequence (P42575 2-452, species assumed, looked up): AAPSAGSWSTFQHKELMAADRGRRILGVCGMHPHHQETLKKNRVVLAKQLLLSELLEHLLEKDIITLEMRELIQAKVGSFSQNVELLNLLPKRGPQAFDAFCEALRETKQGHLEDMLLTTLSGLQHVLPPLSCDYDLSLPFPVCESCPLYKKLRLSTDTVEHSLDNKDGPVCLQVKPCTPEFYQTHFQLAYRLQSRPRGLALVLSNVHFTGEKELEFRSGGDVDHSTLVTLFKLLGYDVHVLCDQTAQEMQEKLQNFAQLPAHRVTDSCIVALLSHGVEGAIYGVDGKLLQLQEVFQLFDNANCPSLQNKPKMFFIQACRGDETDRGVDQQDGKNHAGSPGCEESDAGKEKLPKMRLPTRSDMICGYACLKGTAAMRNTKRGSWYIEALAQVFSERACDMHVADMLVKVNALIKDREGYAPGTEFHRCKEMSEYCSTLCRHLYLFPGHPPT

[6] = biological target: T4, pro-caspase-12 (caspase-12L, full-length precursor, 419 residues, 48 kDa)
T4 chain: T1 sequence (O08736 1-419)

[7] = biological target: T5, pro-caspase-3 ([35S]-labeled)
T5 sequence (P42574 1-277, species assumed, looked up): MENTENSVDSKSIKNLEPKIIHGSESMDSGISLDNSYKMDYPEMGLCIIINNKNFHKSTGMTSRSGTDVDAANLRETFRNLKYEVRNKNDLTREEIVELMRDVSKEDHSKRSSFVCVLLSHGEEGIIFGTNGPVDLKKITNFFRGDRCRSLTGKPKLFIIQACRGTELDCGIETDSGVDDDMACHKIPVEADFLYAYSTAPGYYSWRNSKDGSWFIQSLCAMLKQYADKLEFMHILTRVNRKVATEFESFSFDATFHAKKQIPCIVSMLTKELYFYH

B1: baculovirus p35: virus inhibitor for the caspase family (protein, UniProt P08160 1-299, looked up)
Early 35 kDa protein: MCVIFPVEIDVSQTIIRDCQVDKQTRELVYINKIMNTQLTKPVLMMFNISGPIRSVTRKNNNLRDRIKSKVDEQFDQLERDYSDQMDGFHDSIKYFKDEHYSVSCQNGSVLKSKFAKILKSHDYTDKKSIEAYEKYCLPKLVDERNDYYVAVCVLKPGFENGSNQVLSFEYNPIGNKVIVPFAHEINDTGLYEYDVVAYVDSVQFDGEQFEEFVQSLILPSSFKNSEKVLYYNEASKNKSMIYKALEFTTESSWGKSEKYNWKIFCNGFIYDKKSKVLYVKLHNVTSALNKNVILNTIK
caspase-12
  suppression of cell-killing activity of caspase-12: could not efficiently suppress

B2: caspase-12L: long form of mouse caspase-12, 419 amino acid residues (SEQ ID NO:2); expressed as lacZ fusion (protein)
chain: T1 sequence (O08736 1-419)
modifications: lacZ fusion
COS-1 cells
  apoptosis induced by casp-12L expression: resistant to apoptosis
Rat-1 cells
  percentage of cell death (round blue cells among total blue cells): about 60%
Rat-1 cells; listed as casp-12L-lacZ
  percentage of cell death (round blue cells among total blue cells): 60%
NG108-15
  apoptosis induced by casp-12L expression: resistant to apoptosis
HeLa
  apoptosis induced by casp-12L expression: resistant to apoptosis
[1]
  processing and protease activity in vitro: without any processing and protease activity
Rat-1/bcl-2
  percentage of cell death: 50%
[2]
  transfected cells round and small: about 60%

B3: His-tagged caspase-12Δ2 (residues 145-419 of caspase-12L), partially purified from E. coli, autoprocessed into p24 and p10 (protein)
chain 1: TLKLCPRDQFCKIKTERAKEIYPVMEKEGRTRLALIICNKKFDYLFDRDNADTDILNMQELLENLGYSVVLKENLTAQEMETELMQFAGRPEHQSSDSTFLVFMSHGILEGICGVKHRNKKPDVLHDDTIFKIFNNSNCRSLRNKPKILIMQACRGRYNGTIWVSTNKGIATAD
chain 2: TDEERVLSCKWNNSITKAHVETDFIAFKSSTPHNISWKVGKTGSLFISKLIDCFKKYCWCYHLEEIFRKVQHSFEVPGELTQMPTIERVSMTRYFYLFPGN
[3]
  in vitro cleavage of [35S]-labeled protein by the partially purified protease: the 38 kDa polypeptide was cleaved into 26 kDa and 13 kDa fragments
pro-IL-1β
pro-IL-1β, sequence (P01584 whole entry): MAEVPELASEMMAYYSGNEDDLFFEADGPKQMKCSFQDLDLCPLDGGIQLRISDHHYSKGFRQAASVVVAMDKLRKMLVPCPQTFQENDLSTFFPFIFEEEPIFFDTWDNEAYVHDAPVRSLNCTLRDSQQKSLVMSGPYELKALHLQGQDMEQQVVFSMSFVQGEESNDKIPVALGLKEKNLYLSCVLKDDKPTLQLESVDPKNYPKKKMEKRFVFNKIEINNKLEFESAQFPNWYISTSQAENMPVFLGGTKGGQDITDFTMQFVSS
  in vitro cleavage by the purified protease: showed little activity for cleavage of pro-IL-1β and poly(ADP-ribose) polymerase
pro-ICE ([35S]-labeled)
pro-ICE ([35S]-labeled), sequence (P29466 whole entry): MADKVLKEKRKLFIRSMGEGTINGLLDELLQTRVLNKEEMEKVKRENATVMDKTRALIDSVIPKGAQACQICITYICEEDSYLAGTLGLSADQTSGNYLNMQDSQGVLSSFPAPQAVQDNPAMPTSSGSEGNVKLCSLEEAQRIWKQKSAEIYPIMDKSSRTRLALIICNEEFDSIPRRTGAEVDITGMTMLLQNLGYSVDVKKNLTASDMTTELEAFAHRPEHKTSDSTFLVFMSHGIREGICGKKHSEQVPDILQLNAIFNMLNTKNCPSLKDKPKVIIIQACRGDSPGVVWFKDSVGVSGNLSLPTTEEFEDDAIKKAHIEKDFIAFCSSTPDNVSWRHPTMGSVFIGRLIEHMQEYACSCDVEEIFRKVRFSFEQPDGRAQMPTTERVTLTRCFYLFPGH
  in vitro cleavage of [35S]-labeled pro-enzyme by the partially purified protease: only faint bands of cleavage products were visible
[4]
  in vitro cleavage by the purified protease: showed little activity for cleavage of pro-IL-1β and poly(ADP-ribose) polymerase
[5]
  in vitro cleavage of [35S]-labeled pro-enzyme by the partially purified protease: only faint bands of cleavage products were visible
[6]
  in vitro cleavage of [35S]-labeled pro-enzyme by the partially purified protease: can efficiently process pro-caspase-12 (48 kDa) into fragments
[7]
  in vitro cleavage of [35S]-labeled pro-enzyme by the partially purified protease: only faint bands of cleavage products were visible
